Read-outs that look alike come from different tables or passages of the source. Ends that are not written are not given here.
B1: ShK[2-35] synthetic peptide analog (peptide)
peptide: SCIDTIPKSRCTAFQCKHSMKYRLSFCRKTCGTC
modifications: not fully specified; ends and bridges not checked

Tests used:
Test in all cases: cell-based or functional assay
[1] = molecular target: human Kv1.3 voltage-gated potassium channel (human) (UniProt P22001)
[2] = molecular target: human Kv1.3 channel (human) (UniProt P22001)
[3] = molecular target: human Kv1.1 channel (human) (UniProt Q09470)
[4] = molecular target: human Kv1.3 channel (human) (UniProt P22001); remark: listed apart in the source

human Kv1.3 voltage-gated potassium channel (human), sequence (P22001 whole entry): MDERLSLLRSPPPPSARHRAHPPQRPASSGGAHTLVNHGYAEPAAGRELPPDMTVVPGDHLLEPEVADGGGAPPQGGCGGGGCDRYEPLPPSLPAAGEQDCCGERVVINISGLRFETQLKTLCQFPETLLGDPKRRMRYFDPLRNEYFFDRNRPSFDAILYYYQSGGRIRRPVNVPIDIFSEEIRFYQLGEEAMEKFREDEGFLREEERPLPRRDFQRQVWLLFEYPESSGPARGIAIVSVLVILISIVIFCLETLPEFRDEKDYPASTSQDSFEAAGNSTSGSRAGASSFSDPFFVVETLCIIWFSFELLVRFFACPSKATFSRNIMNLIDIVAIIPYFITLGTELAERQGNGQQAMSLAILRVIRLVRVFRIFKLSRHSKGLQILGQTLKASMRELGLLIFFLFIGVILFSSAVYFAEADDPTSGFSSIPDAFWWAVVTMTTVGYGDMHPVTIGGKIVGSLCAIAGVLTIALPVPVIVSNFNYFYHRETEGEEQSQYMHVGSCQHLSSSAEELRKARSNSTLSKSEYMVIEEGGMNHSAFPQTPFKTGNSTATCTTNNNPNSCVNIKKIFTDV
human Kv1.3 channel (human), sequence (P22001 whole entry): as above
human Kv1.1 channel (human), sequence (Q09470 whole entry): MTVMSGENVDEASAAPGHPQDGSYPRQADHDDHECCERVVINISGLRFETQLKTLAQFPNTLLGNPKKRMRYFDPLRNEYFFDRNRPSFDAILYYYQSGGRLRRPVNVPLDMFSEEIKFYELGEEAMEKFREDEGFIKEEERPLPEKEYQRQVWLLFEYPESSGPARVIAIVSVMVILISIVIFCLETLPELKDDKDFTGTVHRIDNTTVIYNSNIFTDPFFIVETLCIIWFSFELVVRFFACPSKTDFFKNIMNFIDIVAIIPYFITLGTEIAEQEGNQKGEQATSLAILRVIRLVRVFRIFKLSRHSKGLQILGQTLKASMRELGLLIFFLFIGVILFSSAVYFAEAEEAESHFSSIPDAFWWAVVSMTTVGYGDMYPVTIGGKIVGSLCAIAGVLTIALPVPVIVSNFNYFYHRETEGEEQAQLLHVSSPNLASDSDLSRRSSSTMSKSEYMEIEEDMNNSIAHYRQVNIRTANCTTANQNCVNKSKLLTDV

| Molecule | WB/IFNg (IC50, nM), human whole blood assay [1] [nM] | WB/IL-2 (IC50, nM), human whole blood assay [1] [nM] | IC50 of block of the outward potassium current, whole cell patch clamp [2] [pM] | further results |
| --- | --- | --- | --- | --- |
| 20k PEG-OSK1[Ala29, 1Nal34] (peptide) | 0.081 | 0.049 |  |  |
| 20k PEG-ShK (peptide) | 0.065 | 0.046 |  |  |
| Fc-L5-ShK[2-35] (Fc fusion) |  |  | 100 |  |
| Fc-L10-ShK[2-35] (CHO-derived) (Fc fusion) |  |  | 115 |  |
| GGGGS-Osk1 (peptide) | 2.2 | 1.36 |  |  |
| OSK1 (native Orthochirus scrobiculosus toxin peptide) |  |  |  | Kv1.3 Selectivity (=Kv1.1/Kv.3 IC50) [1]: 5 fold |
| OSK1 analogue E16K, K20D (peptide) | 1.32 | 1.58 |  |  |
| Synthetic OSK1 (peptide) |  |  |  | hKv1.3: IC50 [pM], block of K+ current, whole cell patch clamp [2]: 39 pM; selectivity ratio hKv1.1/hKv1.3 (IC50 on hKv1.1 over IC50 on hKv1.3) [2]: 4 fold; hKv1.1: IC50 [pM], block of K+ current, whole cell patch clamp [3]: 160 pM |
| synthetic OSK1 toxin peptide |  |  | 39 |  |
| B1 |  |  |  | IC50 of block of the outward potassium current, whole cell patch clamp [4]: 49 pM |
